Paper PMC5698293, “Single-molecule visualization of conformational changes and substrate transport in the vitamin B12 ABC importer BtuCD-F” (Nature Communications, 2017)

What was measured:
[1] = target: T1, BtuCD-F (BtuCD with BtuF D141C), ATPase site (Escherichia coli, UniProt P06611, C180S); details: 2 mM ATP, 10 mM MgCl2, pH 7.5, 30 °C; BtuCD WT with BtuF D141C
T1 construct: gene btuD

[2] = target: BtuCDcys (cysteine mutant of the vitamin B12 ABC importer BtuCD: BtuC Q111C/W115L, cys-less BtuC and BtuD), reconstituted in liposomes (Escherichia coli) (UniProt P06609)
[3] = target: BtuCDcys (cysteine mutant of the vitamin B12 ABC importer BtuCD: BtuC Q111C/W115L, cys-less BtuC and BtuD), reconstituted in liposomes (Escherichia coli) (UniProt P06609); assay: single-molecule fluorescence intensity change (TIRF microscopy); BtuCDcys labelled with Alexa Fluor 555 in 100-nm proteoliposomes (empty lumen, no ATP) tethered to glass by biotin-streptavidin; unlabelled BtuF added to the outside; 50 mM KPi, 200 mM KCl, pH 7.5; room temperature

| Molecule | NADH-coupled PK/LDH ATPase assay in proteoliposomes [1] | fraction of inside-out complexes that respond to ATP by a decrease of the Alexa Fluor 555 fluorescence of BtuCDcys (corrected for orientation; unlabelled BtuF in the lumen) [2] | fraction of liposomes in which the Alexa Fluor 555 fluorescence of BtuCDcys decreased upon addition of 2 mM ATP and 10 mM Mg2+ on the outside (unlabelled BtuF in the lumen; no events without BtuF) [2] | percent of right-side-out complexes with an increase in fluorescence upon addition of BtuF [3] | percent of traces with an increase in fluorescence upon addition of BtuF [3] |
| --- | --- | --- | --- | --- | --- |
| Nc1ncnc2c1ncn2[C@@H]1O[C@H](COP(=O)(O)OP(=O)(O)OP(=O)(O)O)[C@@H](O)[C@H]1O [ATP] | ATPase rate of various BtuCD-F mutants with or without fluorescent label reconstituted in liposomes |  |  |  |  |
| BtuF D141C (periplasmic vitamin B12-binding protein, cys-less, signal peptide removed) (from UniProt P37028 23-266) (natural protein) |  | 18% | 8% | 82% | 45% |
